In assay [1] the target is T1, recombinant human IL-23 (p19/p40) (human, UniProt Q9NPF7 20-189; P29460 23-328).
T1 construct: Bought heterodimer (R&D Systems or eBioscience); biotinylated in the alpha-screens; also called hIL-23
T1 sequence (looked up) 1: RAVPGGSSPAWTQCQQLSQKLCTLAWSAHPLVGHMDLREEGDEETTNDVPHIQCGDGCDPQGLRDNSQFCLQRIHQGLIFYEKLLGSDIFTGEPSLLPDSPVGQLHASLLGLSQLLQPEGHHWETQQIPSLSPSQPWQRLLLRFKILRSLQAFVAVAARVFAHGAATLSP
T1 sequence (looked up) 2: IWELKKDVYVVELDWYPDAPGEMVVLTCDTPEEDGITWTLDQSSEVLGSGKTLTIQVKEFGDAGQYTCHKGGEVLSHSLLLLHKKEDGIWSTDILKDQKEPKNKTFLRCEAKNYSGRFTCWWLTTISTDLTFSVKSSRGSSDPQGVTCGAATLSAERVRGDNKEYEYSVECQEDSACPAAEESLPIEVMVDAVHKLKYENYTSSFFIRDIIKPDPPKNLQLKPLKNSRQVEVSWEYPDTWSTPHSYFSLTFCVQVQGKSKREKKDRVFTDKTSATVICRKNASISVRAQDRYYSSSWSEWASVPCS
In words: SPR Biacore, hIL-23 on chip. On the technique in general: Surface plasmon resonance follows binding to a sensor surface in real time, without labels.
Experimental: Nanobody binding was assessed at one concentration (100 nM). Each Nanobody was injected for 4 minutes at a flow rate of 45 μl/min to allow binding to chip-bound antigen. Next, binding buffer without Nanobody was sent over the chip at the same flow rate to allow spontaneous dissociation of bound Nanobody.

Assay [2] concerns the target T2, recombinant human IL-12 (human, UniProt P29459 23-219; P29460 23-328).
T2 construct: Bought (R&D Systems); also called hIL-12
T2 sequence (looked up) 1: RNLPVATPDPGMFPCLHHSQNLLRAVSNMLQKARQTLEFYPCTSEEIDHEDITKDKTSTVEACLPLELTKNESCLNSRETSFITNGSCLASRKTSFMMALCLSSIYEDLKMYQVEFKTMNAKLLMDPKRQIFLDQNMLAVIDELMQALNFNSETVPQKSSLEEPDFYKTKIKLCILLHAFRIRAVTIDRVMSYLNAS
T2 sequence (looked up) 2: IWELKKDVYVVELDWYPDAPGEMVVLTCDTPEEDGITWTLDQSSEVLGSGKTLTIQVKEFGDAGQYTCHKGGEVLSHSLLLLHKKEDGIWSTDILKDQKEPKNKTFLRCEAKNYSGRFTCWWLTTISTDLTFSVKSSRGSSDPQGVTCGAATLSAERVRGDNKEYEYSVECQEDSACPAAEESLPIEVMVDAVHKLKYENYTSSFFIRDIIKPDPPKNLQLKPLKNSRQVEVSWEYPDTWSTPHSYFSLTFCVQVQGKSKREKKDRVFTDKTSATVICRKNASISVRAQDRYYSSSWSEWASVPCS
The experiment in a line: alpha-screen, hIL-12/IL12Rbeta1-Fc. A general note: Alpha assays give light when donor and acceptor beads are brought close together.
Experimental: Human IL-23R-Fc chimera and hIL12Rbeta1-Fc chimera (R&D Systems, Minneapolis, Minn., US) were coupled to acceptor beads according to manufacturer instructions (Perkin Elmer, Waltham, Mass., US).
To this mixture, the IL12Rbeta1 acceptor beads and the streptavidin donor beads were added and further incubated for 1 hour at RT.

Assay [3] concerns the target T3, cynomolgus IL-23 (cynomolgus).
T3 construct: also called cyno IL-23; cIL-23
The experiment in a line: SPR Biacore, cyno IL-23 on chip.

In assay [4] the target is T3, cynomolgus IL-23. The experiment in a line: cell-based or functional assay.
Assay [5] concerns the target T1, recombinant human IL-23 (p19/p40). In words: cell-based or functional assay.
Assay [6] deals with T2, recombinant human IL-12. In words: cell-based or functional assay.

Several values for one entry are separate records, joined by “and”; a condition that tells them apart may be missing. Equal entries are not always repeated.

B1: P23IL 84A12 (VHH)
VHH: EVQLVESGGGVVQAGESLRLSCAASGRSFSDYEMGWFRQAPGTEREFVASINRRGSSTFYADSVKGRFTISRDNTKNTVYLQMSSLKPEDTAVYLCAAGWLFPSSRSRDYDYWGQGTQVTVSS
notes: p40+ Nanobody; c-myc, His6-tagged
For B1, the off-rate constant (koff) (as a rule, the first-order rate constant of dissociation) in assay [1] was 0.0016 s⁻¹. Also, in assay [2], the half-maximal inhibitory concentration (IC50) – broadly, the concentration at which inhibition is half-maximal – worked out at 0.96 nM.

B2: P23IL 21C4 (VHH)
VHH: EVQLVESGGGLVQAGGSLRLSCAASGRTFSGYDMGWFRQAPGKEREFVAQISRHNSNTYYADAVKGRFTISRDNAKNTVSLQMNSLKPEDTAVYYCAIGSLFPSSRERDYDYWGQGTQVTVSS
notes: as for B1
As for B2, the koff in assay [1] came to 0.00051 s⁻¹. The IC50 in assay [2] amounted to 1.63 nM.

B3: P23IL 3F11 (VHH)
VHH: EVQLVESGGGLVQAGGSLRLSCAASGSIFSINAMGWFRQAPGKERQFVAAINWSTGSTYYSDSVKGRFTISRDNAKNTVYLQMNSLKPEDTAVYFCASGYLFPSSRGSQYDYWGQGTQVTVSS
notes: as for B1
On to B3, for which the koff in assay [1] worked out at 0.00146 s⁻¹.

B4: P23IL3C1 (VHH)
VHH: EVQLVESGGGSVQAGGSLRLSCKVSGIMFSDKGMGWFRQAPGKERETVAATNWSGGSTYYADSVKGRFTISRDNYKNTLHLQMASLKPEDTGIYYCAAAGDSWNSRRIEDYDYWGQGTPVTVSS
notes: p40+ Nanobody
Turning to B4, the koff in assay [1] was determined as 0.000294 s⁻¹; in assay [3], 5.9e-05 s⁻¹. Besides, the IC50 in assay [2] was 1 nM. Also, the “IC50, mouse splenocyte assay (mIL-22); nc = blocking not complete” value in assay [4] came to 0.517 nM; in assay [5] it was 0.51 nM.

B5: P23IL3B8 (VHH)
VHH: EVQLVESGGGLVQPGGSLRLSCAASGFTFSSSVMFWLRQAPGKGLEWLSTIKPTGSTIYPGSGKGRFTISRDNAKNTLYLQINNLKPEDTALYYCARDIGGTVRGQGTQVTVSS
notes: as for B1
Regarding B5, the koff in assay [1] is 0.0035 s⁻¹. For the same molecule, in assay [2], the IC50 is 0.35 nM. For the same molecule, the “IC50, mouse splenocyte assay (mIL-22)” value in assay [4] turned out to be 1.79 nM; in assay [5] it was 0.408 nM. In assay [6], the “IC50, PHA blast proliferation, 1 pM hIL-12; nc = no complete blocking” value came out at 1500 pM.

B6: P23IL 84G12 (VHH)
VHH: EVQLVESGGRLVQAGGSLRLSCAASGRTFDSNPMGWFRQAPGKKREFVAIISGNGGITNYANSVKGRFTISRDNAKNTIYLQMNSLKPEDTAVYYCAASGLYGSGSVYDLMYDYWGQGTQVTVSS
notes: also called P23ILp40-PMP84G12
Consider B6, for which the koff in assay [1] was found to be 0.00029 s⁻¹; in assay [3], 7e-05 s⁻¹.

B7: P23IL3G10 (VHH)
VHH: EVQLVESGGGVVQAGESLRLSCAASGYNVKDYEMGWFRQAPGMEREFAAAISWRGSSTYYADSVKGRFTISRDNAKNTVYLQMSSLKPEDTAVYYCAAGRLYPSSRSRDYDYWGQGTQVTVSS
notes: as for B1
Take B7: the koff in assay [1] was 0.00197 s⁻¹; in assay [3] it was 0.002 s⁻¹ and 0.004 s⁻¹. In addition, the IC50 in assay [2] came to 0.9 nM. For the same molecule, the figures for the “IC50, mouse splenocyte assay (mIL-22)” value in assay [4] and in assay [5] were 9.45 nM and 2.33 nM, respectively. The “IC50, PHA blast proliferation, 1 pM hIL-12” value in assay [6] was 194 pM.

B8: P23IL-23E3 (VHH)
VHH: EVQLVESGGELVQAGGSLRLSCAASGSIVSISAMAWYRQAPGKQRERVATITRGGTPDYADSAKDRFTISRDNAKNTVSLQMNNLKPEDTAVYYCKAALRTPTHDYNYYDYWGQGTQVTVSS
notes: p40+ Nanobody
For B8, the koff in assay [1] was 0.00018 s⁻¹; in assay [3] it was 0.0012 s⁻¹ and 0.0025 s⁻¹. The 50% inhibitory concentration (IC50) in assay [2] came to 1.2 nM. Besides, the “IC50, mouse splenocyte assay (mIL-22)” value in assay [4] was determined as 5.46 nM; in assay [5], 0.935 nM. The “IC50, PHA blast proliferation, 1 pM hIL-12; nc = no complete blocking” value in assay [6] was 1730 pM.

B9: P23IL81E10 (VHH)
VHH: EVQLVESGGGLVQAGGSLRLSCVASGRTFNTYGMGWFRQAPGKEREFVAANNWSGGATSYADSVKGRFTISRDNAKNTVFLQMNTLKPEDTAVYYCAAADRGGGWLVVRENDYDYWGQGTQVTVSS
notes: p40+ Nanobody
As for B9, the koff in assay [1] was 0.00263 s⁻¹; in assay [3] it was 0.00132 s⁻¹ and 0.0012 s⁻¹. Besides, the IC50 in assay [2] is 23 nM.

The record behind these values is US20110053865A1 (Ablynx, published 2011).
